Patent US20150344570A1 (published 2015)

T1: FcgRIIaR (human, UniProt P12318 34-217)
T1 construct: extracellular domain; also called FcγRIIa R; FcgRIIa type R; not shown: His tag attached to the C terminus
T1 sequence (looked up): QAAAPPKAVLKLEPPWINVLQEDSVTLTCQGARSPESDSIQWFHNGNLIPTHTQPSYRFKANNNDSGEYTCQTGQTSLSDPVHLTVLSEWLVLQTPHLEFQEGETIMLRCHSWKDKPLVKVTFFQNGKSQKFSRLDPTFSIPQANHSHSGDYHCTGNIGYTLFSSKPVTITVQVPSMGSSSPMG

T2: FcgRIIaH (human, UniProt P12318 34-217)
T2 construct: extracellular domain; also called FcγRIIa H; FcgRIIa type H; not shown: His tag attached to the C terminus
T2 sequence (looked up): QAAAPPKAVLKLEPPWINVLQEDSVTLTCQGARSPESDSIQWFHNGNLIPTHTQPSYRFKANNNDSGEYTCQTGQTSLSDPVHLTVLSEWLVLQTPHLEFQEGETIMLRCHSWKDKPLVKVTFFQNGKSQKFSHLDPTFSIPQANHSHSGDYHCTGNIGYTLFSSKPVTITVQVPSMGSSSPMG

T3: FcgRIIb (human, UniProt P31994 43-217)
T3 construct: extracellular domain; also called FcγRIIb; 2b; not shown: His tag attached to the C terminus
T3 sequence (looked up): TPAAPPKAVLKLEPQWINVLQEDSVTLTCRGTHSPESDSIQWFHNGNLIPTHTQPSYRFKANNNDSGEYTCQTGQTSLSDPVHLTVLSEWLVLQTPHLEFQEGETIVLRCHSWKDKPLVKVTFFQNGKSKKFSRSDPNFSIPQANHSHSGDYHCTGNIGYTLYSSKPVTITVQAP


Experiments:
Experiment in all cases: SPR (Biacore); KD of H240-Kn033/H240-Hl033/L73-k0 divided by KD of this variant
FcgRIIaR = molecular target: T1, FcgRIIaR
Description: (§1) H240-Kn204/H240-Hl211/L73-k0 and H240-Kn205/H240-Hl212/L73-k0 were prepared according to the method of Reference Example 1, by combining H240-Kn204 as one of the H chains and L73-k0 as the L chains with H240-Hl211 as the other H chain, and by combining H240-Kn205 as one of the H chains and L73-k0 as the L chains with H240-Hl212 as the other H chain, and then expressing them. The binding of the prepared variants to FcgRIa, FcgRIIaR, FcgRIIaH, FcgRIIb, FcgRIIIaF, and FcgRIIIaV was measured according to the method of Reference Example 8.
(§2) “fold 2aR”, “fold 2aH”, “fold 2b”, “fold 3aF”, and “fold 3aV” show the relative binding activity of each variant to FcgRIIaR, FcgRIIaH, FcgRIIb, FcgRIIIaF, and FcgRIIIaV, respectively, when the binding activity of H240-Kn033/H240-Hl033/L73-k0, a variant produced by introducing only alterations that promote formation of a heterodimerized antibody into a native IgG1, is defined as 1. Specifically, they are values obtained by dividing the KD value of H240-Kn033/H240-Hl033/L73-k0 for each FcgR by the KD value of an individual variant for each FcgR.
(§3) Analysis of interaction between objective antibody and the FcγR was carried out using Biacore T100 (GE Healthcare), Biacore T200, Biacore A100, and Biacore 4000. HBS-EP+ (GE Healthcare) was used as the running buffer, and the measurement temperature was set to 25° C. Chips produced by immobilizing the antigen peptide by the amine coupling method to a Series S sensor Chip CM5 (GE Healthcare), chips produced by allowing preliminarily biotinylated antigen peptides to interact with and immobilize onto a Series S Sensor Chip SA (certified) (GE Healthcare), chips produced by immobilizing Protein L (ACTIGEN, BioVision) to Series S Sencor Chip CM5 (GE Healthcare), or chips produced by immobilizing Protein A/G (Thermo Scientific) to Series S Sencor Chip CM5 (GE Healthcare) were used. Antibodies of interest were captured onto these chips, and allowed to interact to each FcγR diluted with running buffer.

FcgRIIaH = molecular target: T2, FcgRIIaH
Description: as §1, §2, §3

FcgRIIb = molecular target: T3, FcgRIIb
Description: as §1, §2, §3

FcgRIIIaF = molecular target: T4, FcgRIIIaF (human, UniProt P08637 17-208)
T4 construct: extracellular domain; also called FcγRIIIa F; 3aF; not shown: His tag attached to the C terminus
Description: as §1, §2, §3

FcgRIIIaV = molecular target: T5, FcgRIIIaV (human, UniProt P08637 17-208)
T5 construct: extracellular domain; also called FcγRIIIa V; 3aV; not shown: His tag attached to the C terminus
Description: as §1, §2, §3

T4 sequence (P08637 17-208): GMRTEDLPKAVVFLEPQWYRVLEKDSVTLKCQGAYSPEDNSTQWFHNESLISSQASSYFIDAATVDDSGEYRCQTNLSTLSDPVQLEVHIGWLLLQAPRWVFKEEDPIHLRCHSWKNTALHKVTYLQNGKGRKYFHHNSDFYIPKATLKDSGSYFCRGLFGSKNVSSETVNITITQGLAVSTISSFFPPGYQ
T5 sequence (P08637 17-208 F176V limits assumed): as the sequence (P08637 17-208) above, with F160V counted along it

Row | fold 2aR (FcgRIIaR) [fold] | fold 2aH (FcgRIIaH) [fold] | fold 2b (FcgRIIb) [fold] | fold 3aF (FcgRIIIaF) [fold] | fold 3aV (FcgRIIIaV) [fold] | Binder
1 | 27.4 | 7.4 | 22 | 132 | 141 | H240-Kn184/H240-Hl068/L73-k0 (antibody, human IgG1, kappa, Anti-epiregulin heterodimerized IgG1, knobs-into-holes) heavy 1: QDQLVQSGAEVKKPGASVKVSCKASGFNIKDTYIQWVRQAPGQGLEWMGRIDPLRKQTKYREKFEGRVTITADTSTNTAYMELSSLRSEDTAVYYCVRSGREFDYWGQGTLVTVSSASTKGPSVFPLAPSSKSTSGGTAALGCLVKDYFPEPVTVSWNSGALTSGVHTFPAVLQSSGLYSLSSVVTVPSSSLGTQTYICNVNHKPSNTKVDKKVEPKSCDKTHTCPPCPAPEEYWGPMVFLFPPKPKDTLMISRTPEVTCVVVDVSDEDPEVKFNWYVDGVEVHNAKTKPREEQYNATYRVVSVLTVLHQDWLNGKEYKCKVSNKDLPAPIEKTISKAKGQPREPQVCTLPPSRDELTKNQVSLWCLVKGFYPSDIAVEWESNGQPENNYKTTPPVLDSDGSFFLYSKLTVDKSRWQQGNVFSCSVMHEALHNHYTQKSLSLSP heavy 2: QDQLVQSGAEVKKPGASVKVSCKASGFNIKDTYIQWVRQAPGQGLEWMGRIDPLRKQTKYREKFEGRVTITADTSTNTAYMELSSLRSEDTAVYYCVRSGREFDYWGQGTLVTVSSASTKGPSVFPLAPSSKSTSGGTAALGCLVKDYFPEPVTVSWNSGALTSGVHTFPAVLQSSGLYSLSSVVTVPSSSLGTQTYICNVNHKPSNTKVDKKVEPKSCDKTHTCPPCPAPELLGGPSVFLFPPKPKDTLMISRTPEVTCVVVDVSHEEPEVKFNWYVDGVEVHNAKTKPREEQYNSTYRVVSVLTVLHQDWLNGKEYKCKVSNDALPKPIEETISKAKGQPREPQVYTLPPSRCELTKNQVSLSCAVKGFYPSDIAVEWESNGQPENNYKTTPPVLDSDGSFFLVSKLTVDKSRWQQGNVFSCSVMHEALHNHYTQKSLSLSP light: DIQMTQSPSSLSASVGDRVTITCRASQDIHKYIAWYQQKPGQAPRLLIQYTSTLQPGVPSRFSGSGSGTDYTFTISSLQPEDIATYYCLQYEQLRTFGGGTKVEIKRTVAAPSVFIFPPSDEQLKSGTASVVCLLNNFYPREAKVQWKVDNALQSGNSQESVTEQDSKDSTYSLSSTLTLSKADYEKHKVYACEVTHQGLSSPVTKSFNRGEC
2 | 32.2 | 10.8 | 22 | 90.6 | 92.3 | H240-Kn189/H240-Hl068/L73-k0 (antibody, human IgG1, kappa, Anti-epiregulin heterodimerized IgG1, knobs-into-holes) heavy 1: QDQLVQSGAEVKKPGASVKVSCKASGFNIKDTYIQWVRQAPGQGLEWMGRIDPLRKQTKYREKFEGRVTITADTSTNTAYMELSSLRSEDTAVYYCVRSGREFDYWGQGTLVTVSSASTKGPSVFPLAPSSKSTSGGTAALGCLVKDYFPEPVTVSWNSGALTSGVHTFPAVLQSSGLYSLSSVVTVPSSSLGTQTYICNVNHKPSNTKVDKKVEPKSCDKTHTCPPCPAPESYWGPMVFLFPPKPKDTLMISRTPEVTCVVVDVSDEDPEVKFNWYVDGVEVHNAKTKPREEQYNATYRVVSVLTVLHQDWLNGKEYKCKVSNKDLPAPIEKTISKAKGQPREPQVCTLPPSRDELTKNQVSLWCLVKGFYPSDIAVEWESNGQPENNYKTTPPVLDSDGSFFLYSKLTVDKSRWQQGNVFSCSVMHEALHNHYTQKSLSLSP heavy 2: QDQLVQSGAEVKKPGASVKVSCKASGFNIKDTYIQWVRQAPGQGLEWMGRIDPLRKQTKYREKFEGRVTITADTSTNTAYMELSSLRSEDTAVYYCVRSGREFDYWGQGTLVTVSSASTKGPSVFPLAPSSKSTSGGTAALGCLVKDYFPEPVTVSWNSGALTSGVHTFPAVLQSSGLYSLSSVVTVPSSSLGTQTYICNVNHKPSNTKVDKKVEPKSCDKTHTCPPCPAPELLGGPSVFLFPPKPKDTLMISRTPEVTCVVVDVSHEEPEVKFNWYVDGVEVHNAKTKPREEQYNSTYRVVSVLTVLHQDWLNGKEYKCKVSNDALPKPIEETISKAKGQPREPQVYTLPPSRCELTKNQVSLSCAVKGFYPSDIAVEWESNGQPENNYKTTPPVLDSDGSFFLVSKLTVDKSRWQQGNVFSCSVMHEALHNHYTQKSLSLSP light: DIQMTQSPSSLSASVGDRVTITCRASQDIHKYIAWYQQKPGQAPRLLIQYTSTLQPGVPSRFSGSGSGTDYTFTISSLQPEDIATYYCLQYEQLRTFGGGTKVEIKRTVAAPSVFIFPPSDEQLKSGTASVVCLLNNFYPREAKVQWKVDNALQSGNSQESVTEQDSKDSTYSLSSTLTLSKADYEKHKVYACEVTHQGLSSPVTKSFNRGEC
